Data reported in publication PMC3526301.

B1: TBV-08 (clone 8) (structured_DNA)
DNA: AGCAGCACAGAGGTCAGATGGGTTGGTGTGGTTGGTGAGACCTTGCATGCGACTTGGTGAGCACGTGAGAAGTCCGTGGTAGGGCAGGTTGGGGTGACTCCTATGCGTGCTACCGTGAA
B2: clone 6 (structured_DNA)
DNA: AGCAGCACAGAGGTCAGATGGGTTGGTGTGGTTGGCGAGGACGCTGTGTGCGCTTCGAGGGCCTAGAAGGAGTCCGTGGTAGGGCAGGTTGGGGTGACTCCTATGCGTGCTACCGTGAA
B3: clone 4 (structured_DNA)
DNA: AGCAGCACAGAGGTCAGATGGGTTGGTGTGGTTGGCTGGTCTGGGGGCGTTTACTGGGCGCGCATTTTAAAGTCCGTGGTAGGGCAGGTTGGGGTGACTCCTATGCGTGCTACCGTGAA
B4: clone 9 (structured_DNA)
DNA: AGCAGCACAGAGGTCAGATGGGTTGGTGTGGTTGGCATTCGTAACTATGGGGTTCCTGTATTGGTATAGGAGTCCGTGGTAGGGCAGGTTGGGGTGACTCCTATGCGTGCTACCGTGAA
B5: clone 7 (structured_DNA)
DNA: AGCAGCACAGAGGTCAGATGGGTTGGTGTGGTTGGCTCTGATAACCCGGGGCTGTGGTGCGCCAGGTAGGAGTCCGTGGTAGGGCAGGTTGGGGTGACTCCTATGCGTGCTACCGTGAA
B6: clone 1 (structured_DNA)
DNA: AGCAGCACAGAGGTCAGATGGGTTGGTGTGGTTGGAGCGGACTTTACCTGTGTCAGCTGCGGGGGCCGCAAGTCCGTGGTAGGGCAGGTTGGGGTGACTCCTATGCGTGCTACCGTGAA
B7: clone 5 (structured_DNA)
DNA: AGCAGCACAGAGGTCAGATGGGTTGGTGTGGTTGGCATTTTGACCGAATGACGTTAGCAAAATATGTTAGAGTCCGTGGTAGGGCAGGTTGGGGTGACTCCTATGCGTGCTACCGTGAA
B8: clone 2 (structured_DNA)
DNA: AGCAGCACAGAGGTCAGATGGGTTGGTGTGGTTGGCTGATACCGGAAGGGGTGTGTGTAGCGCGGTTGAGAGTCCGTGGTAGGGCAGGTTGGGGTGACTCCTATGCGTGCTACCGTGAA
B9: clone 3 (structured_DNA)
DNA: AGCAGCACAGAGGTCAGATGGGTTGGTGTGGTTGGTGAGTCGACTGTGTGCCTCAAGTAGAACGTAGGTGAGTCCGTGGTAGGGCAGGTTGGGGTGACTCCTATGCGTGCTACCGTGAA
B10: clone 10 (structured_DNA)
DNA: AGCAGCACAGAGGTCAGATGGGTTGGTGTGGTTGGTTTGCCGATGTGTGGACAGCATGTGGGGTAGAGCGAGTCCGTGGTAGGGCAGGTTGGGGTGACTCCTATGCGTGCTACCGTGAA
B11: TBV-08 without primer sites (structured_DNA)
DNA: GGTTGGTGTGGTTGGTGAGACCTTGCATGCGACTTGGTGAGCACGTGAGAAGTCCGTGGTAGGGCAGGTTGGGGTGACT

biological target: T1, human alpha-thrombin (Homo sapiens, UniProt P00734;P00734 315-363;364-622); experiment: bead-based fluorescence binding; apparent Kd; 50 mM Tris, 100 mM NaCl, 1 mM MgCl2, 5 mM KCl, 1 mM CaCl2, 0.01% Tween 20, pH 7.5 (selection buffer), 1 h room temperature, wa

Binder | Kd [nM]
B1 | 0.0081

biological target: T1, human alpha-thrombin; experiment: bead-based fluorescence binding; 50 pM aptamer; 50 mM Tris, 100 mM NaCl, 1 mM MgCl2, 5 mM KCl, 1 mM CaCl2, 0.01% Tween 20, pH 7.5 (selection buffer), 1 h room temperature, wa

Binder | binding result
B2 | binds
B3 | binds
B4 | binds
B5 | binds
B6 | binds
B7 | binds
B8 | binds
B9 | binds
B10 | binds

biological target: T1, human alpha-thrombin; experiment: bead-based fluorescence binding; apparent Kd; Figure S7 legend gives 430 pM; 50 mM Tris, 100 mM NaCl, 1 mM MgCl2, 5 mM KCl, 1 mM CaCl2, 0.01% Tween 20, pH 7.5 (selection buffer), 1 h room temperature, wa

Binder | Kd [nM]
B11 | 0.44
